Data published in patent US20200123266A1 (Memorial Sloan Kettering, published 2020).
Ends that are not written are not given here. * marks the point of attachment. Biotin = O=C1N[C@H]2[C@H](CS[C@H]2CCCCC(=O)*)N1

Assays:
[1] = biological target: T1, ET140-p25 (human, cysteine pairing not given here); assay: peptide ELISA, biotin peptide on streptavidin plate, antibody 1 ug/mL
T1 construct: also called peptide 25
T1 peptide: Biotin-SGSGLRCSSNTPPLTCQRY
Method: (§1) The peptides were coated onto Streptavidin plates at 2 ug/mL in PBST (PBS+0.05% Tween-20). After washing and blocking with 3% BSA. After washing, 1 ug/mL ET140-3, ET140-24, ET140-54 or ET901 mIgG1 was added to the wells, respectively. “mIgG1” used in all Examples represents that the variable region is fully human and the Fc part is mouse IgG1. Then HRP anti-mouse IgG detection antibody was added to each well. Finally, the color was developed using TMB substrate. A450 was recorded for data analysis.

[2] = biological target: T2, ET140-p26 (human, cysteine pairing not given here); assay: as above
T2 construct: also called peptide 26
T2 peptide: Biotin-SGSGRCSSNTPPLTCQRYC
Method: as §1

B1: ET140-153 mIgG1 (antibody, V domains shown)
VH: QVQLVQSGAEVKKPGSSVKVSCKASGGTFSSYAISWVRQAPGQGLEWMGRIIPILGIANYAQKFQGRVTITADKSTSTAYMELSSLRSEDTAVYYCARGGYYSHDMWSEDWGQGTLVTVSS
VL: LPVLTQPPSASGTPGQRVTISCSGRSSNIGSNSVNWYRQLPGAAPKLLIYSNNQRPPGVPVRFSGSKSGTSASLAISGLQSEDEATYYCATWDDNLNVHYVFGTGTKVTVLG
notes: also called ET140-3 mIgG1; ET140-3
Binder B1 has an A450 [1] of 0.583 and an A450 [2] of 0.225.
